Patent publication US6767890 (COASTSIDE BIO RESOURCES, dated 2004)
No end group written: not given here.

Experiments:
[1] = molecular target: Galanin receptor of rat ileum (rat); experiment: cell-based or functional assay
[2] = molecular target: T1, Cyclooxygenase-2 from sheep placenta (sheep, UniProt P79208 17-603); experiment: cell-based or functional assay
T1 sequence (looked up): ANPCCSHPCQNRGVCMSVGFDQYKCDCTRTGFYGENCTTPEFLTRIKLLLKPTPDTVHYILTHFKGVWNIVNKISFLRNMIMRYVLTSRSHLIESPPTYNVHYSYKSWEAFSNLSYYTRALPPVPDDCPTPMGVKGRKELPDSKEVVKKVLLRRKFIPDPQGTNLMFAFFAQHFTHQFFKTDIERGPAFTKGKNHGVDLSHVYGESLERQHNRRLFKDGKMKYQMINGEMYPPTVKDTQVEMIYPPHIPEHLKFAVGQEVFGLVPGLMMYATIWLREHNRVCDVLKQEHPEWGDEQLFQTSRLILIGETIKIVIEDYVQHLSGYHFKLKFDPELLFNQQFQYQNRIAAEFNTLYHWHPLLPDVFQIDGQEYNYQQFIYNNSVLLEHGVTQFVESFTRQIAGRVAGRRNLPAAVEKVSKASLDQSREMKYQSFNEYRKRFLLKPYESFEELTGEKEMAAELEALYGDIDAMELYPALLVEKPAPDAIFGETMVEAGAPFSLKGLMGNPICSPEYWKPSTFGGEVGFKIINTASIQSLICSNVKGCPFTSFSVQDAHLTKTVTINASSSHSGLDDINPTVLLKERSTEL

[3] = molecular target: Ca++/calmodulin dependent protein kinase II from rat brain (rat); experiment: cell-based or functional assay
[4] = molecular target: Collagenase IV from human U937 cells (human, UniProt P14780 107-707); experiment: cell-based or functional assay
[5] = molecular target: T2, Cyclooxygenase-1 from ram seminal vesicle (ram (sheep), UniProt P05979 25-600); experiment: cell-based or functional assay
T2 sequence (looked up): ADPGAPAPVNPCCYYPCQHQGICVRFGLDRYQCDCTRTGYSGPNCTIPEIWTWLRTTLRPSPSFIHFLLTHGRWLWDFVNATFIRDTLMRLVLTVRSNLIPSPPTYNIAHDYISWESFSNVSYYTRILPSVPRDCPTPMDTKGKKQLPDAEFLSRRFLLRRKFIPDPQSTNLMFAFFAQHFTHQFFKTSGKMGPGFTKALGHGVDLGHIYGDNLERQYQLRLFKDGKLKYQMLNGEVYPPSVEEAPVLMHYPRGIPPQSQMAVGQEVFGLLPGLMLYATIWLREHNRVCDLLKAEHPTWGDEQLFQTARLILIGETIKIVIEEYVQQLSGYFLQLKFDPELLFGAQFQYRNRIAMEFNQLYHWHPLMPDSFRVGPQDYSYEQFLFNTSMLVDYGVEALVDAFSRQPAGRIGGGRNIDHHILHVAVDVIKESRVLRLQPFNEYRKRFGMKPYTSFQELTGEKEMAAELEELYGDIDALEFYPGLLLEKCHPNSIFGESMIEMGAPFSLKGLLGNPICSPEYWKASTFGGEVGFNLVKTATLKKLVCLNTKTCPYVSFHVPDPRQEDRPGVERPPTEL

[6] = molecular target: Protein kinase C - γ, rabbit brain (recombinant) (rabbit, UniProt P10829 1-697, limits assumed); experiment: cell-based or functional assay
[7] = molecular target: Phospholipase A2 from porcine pancreas (porcine, UniProt P00592 23-146); experiment: cell-based or functional assay
[8] = molecular target: Protein kinase C, non-selective, from rat brain (rat); experiment: cell-based or functional assay
[9] = molecular target: T3, Interleukin-1α receptor on mouse Swiss/3T3 cells (mouse, UniProt P13504 20-576); experiment: historical value of the assay laboratory, saturation analysis of [125I]IL-1 alpha on mouse Swiss/3T3 cells
T3 construct: whole, on cells; also called Interleukin-1α (assay target)
T3 sequence (looked up): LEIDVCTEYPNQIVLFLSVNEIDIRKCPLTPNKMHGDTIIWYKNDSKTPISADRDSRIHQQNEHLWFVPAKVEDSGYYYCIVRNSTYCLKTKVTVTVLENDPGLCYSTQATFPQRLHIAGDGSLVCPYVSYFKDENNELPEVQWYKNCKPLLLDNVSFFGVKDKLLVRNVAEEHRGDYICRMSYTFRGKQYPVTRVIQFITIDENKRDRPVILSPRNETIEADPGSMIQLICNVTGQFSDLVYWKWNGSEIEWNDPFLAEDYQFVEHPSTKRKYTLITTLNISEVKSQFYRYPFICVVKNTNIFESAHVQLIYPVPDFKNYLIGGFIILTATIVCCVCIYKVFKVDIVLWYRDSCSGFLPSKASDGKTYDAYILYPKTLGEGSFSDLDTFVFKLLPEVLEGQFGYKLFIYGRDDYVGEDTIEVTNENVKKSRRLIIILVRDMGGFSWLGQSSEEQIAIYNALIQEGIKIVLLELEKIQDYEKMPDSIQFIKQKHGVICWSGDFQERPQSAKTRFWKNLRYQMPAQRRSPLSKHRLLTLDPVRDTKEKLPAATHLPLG

Collagenase IV from human U937 cells, sequence (P14780 107-707): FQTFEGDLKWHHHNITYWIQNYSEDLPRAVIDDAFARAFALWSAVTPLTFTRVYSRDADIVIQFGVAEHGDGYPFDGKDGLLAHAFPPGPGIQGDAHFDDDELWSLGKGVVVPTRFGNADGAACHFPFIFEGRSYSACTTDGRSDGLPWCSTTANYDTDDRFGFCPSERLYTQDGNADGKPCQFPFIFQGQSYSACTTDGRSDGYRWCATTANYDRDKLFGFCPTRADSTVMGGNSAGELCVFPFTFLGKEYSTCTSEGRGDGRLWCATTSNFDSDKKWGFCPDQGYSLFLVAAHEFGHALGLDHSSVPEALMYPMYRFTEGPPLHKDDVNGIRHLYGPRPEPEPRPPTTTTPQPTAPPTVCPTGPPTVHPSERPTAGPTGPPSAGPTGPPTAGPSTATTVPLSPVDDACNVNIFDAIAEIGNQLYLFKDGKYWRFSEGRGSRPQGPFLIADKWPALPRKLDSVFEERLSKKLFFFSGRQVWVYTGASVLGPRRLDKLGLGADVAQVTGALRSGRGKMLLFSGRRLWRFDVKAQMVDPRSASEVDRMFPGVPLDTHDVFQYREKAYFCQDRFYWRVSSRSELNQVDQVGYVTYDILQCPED
Phospholipase A2 from porcine pancreas, sequence (P00592 23-146): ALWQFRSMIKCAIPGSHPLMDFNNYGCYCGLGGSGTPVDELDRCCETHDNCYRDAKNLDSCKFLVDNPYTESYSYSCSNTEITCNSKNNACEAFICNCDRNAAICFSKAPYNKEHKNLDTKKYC

Binder: LPPSR (also: at least one D-amino acid, position not given here)
- Agonism (contraction of rat ileum relative to 0.1 µM galanin), peptide 30 µM [1]: 0%
- % Inhibition of enzyme activity, peptide 300.0 µM [2]: 2%
- % Inhibition of enzyme activity, peptide 100.0 µM [3]: 12%
- % Inhibition of enzyme activity, peptide 100.0 µM [4]: 2%
- % Inhibition of enzyme activity, peptide 300.0 µM [5]: 2%
- % Inhibition of enzyme activity, peptide 100.0 µM [6]: -6%
- % Inhibition of enzyme activity, peptide 300.0 µM [7]: -11%
- % Inhibition of enzyme activity, peptide 300.0 µM [8]: -6%

B1: Interleukin-1α (ligand, UniProt P01583 113-271, looked up)
chain: SAPFSFLSNVKYNFMRIIKYEFILNDALNQSIIRANDQYLTAAALHNLDEAVKFDMGAYKSSKDDAKITVILRISKTQLYVTAQDEDQPVLLKEMPEIPKTITGSETNLLFFWETHGTKNYFTSVAHPNLFIATKQDYWVCLAGGPPSITDFQILENQA
modifications: 125I label on the radioligand
notes: also called IL-1 alpha; [125I]IL-1 alpha
- Kd [9]: 0.18 nM
